The record followed here is paper PMC5039489.

In assay [1] the target is CK2α-DBCO545 (human protein kinase CK2α subunit with pAzF at position 239, coupled to DBCO545) (human) (UniProt P68400).
Assay [2] has as its target CK2α-DBCO-Sulfo-Cy5 (human protein kinase CK2α subunit with pAzF at position 239, coupled to DBCO-Sulfo-Cy5) (human) (UniProt P68400). The assay is described as follows: MST; CK2α-DBCO-Sulfo-Cy5 constant (65 nM), αS1-casein titrated from 0.76 nM to 12.50 µM; kinase buffer (50 mM Tris/HCl pH 8.5, 25 mM NaCl, 20 mM MgCl2) with 0.1% Tween-20; samples incubated at 37 °C for 90 min; recorded at 30 °C; Monolith NT.115; three independent experiments.

In assay [3] the target is CK2β autotransporter fusion protein (CK2β-AT), displayed on the surface of E. coli by Autodisplay (human). In words: flow cytometry on cells; E. coli BL21(DE3) cells displaying the protein by Autodisplay (OD578 = 1, 20 µL) incubated with 10 µL purified CK2α-DBCO545 for 60 min at 37 °C, washed three times with PBS; 561 nm laser; 50,000 cells.

For the molecule “purified regulatory CK2β-subunit (from UniProt P67870 1-215) (natural protein)”, the phosphorylation activity on the substrate peptide … by capillary electrophoresis: CK2α-DBCO545 with purified CK2β added in a 1:1 ratio against CK2α-DBCO545 alone in assay [1] worked out at 8 fold.

B1: human αS1-casein (natural protein)
chain: RPKLPLRYPERLQNPSESSEPIPLESREEYMNGMNRQRNILREKQTDEIKDTRNESTQNCVVAEPEKMESSISSSSEEMSLSKCAEQFCRLNEYNQLQLQAAHAQEQIRRMNENSHVQVPFQQLNQLAAYPYAVWYYPQIMQYVPFPPFSDISNPTAHENYEKNNVMLQW
Molecule B1 displayed a dissociation constant Kd in assay [2] of 631 nM.

B2: CK2α-DBCO545 (human protein kinase CK2α subunit with pAzF at position 239, coupled to DBCO545) (enzyme)
chain: MSGPVPSRARVYTDVNTHRPREYWDYESHVVEWGNQDDYQLVRKLGRGKYSEVFEAINITNNEKVVVKILKPVKKKKIKREIKILENLRGGPNIITLADIVKDPVSRTPALVFEHVNNTDFKQLYQTLTDYDIRFYMYEILKALDYCHSMGIMHRDVKPHNVMIDHEHRKLRLIDWGLAEFYHPGQEYNVRVASRYFKGPELLVDYQMYDYSLDMWSLGCMLASMIFRKEPFFHGHDN
modifications: para azidophenylalanine (pAzF) at 239, coupled to dibenzylcyclooctyne-fluor 545 (DBCO545) by SPAAC click reaction
For B2, in assay [3], the mean fluorescence intensity (mF) came out at 3800.

Broadly, the Kd is a measure of binding affinity in units of concentration. A high value points to weaker binding.
